The supplement of paper PMC10126150
± gives the standard deviation of the averaged measurements.

These sequences were tested on ATP (assay: switch fluorescence ratio, 500 uM ATP over buffer (Cy3 cluster intensity, sum of 5 cycles each) (fold (ratio)); higher = stronger signal-on switching upon ATP binding; sequences stand for … in TCGTCGGCAGCGTCAGATGTGTATAAGAGACAGTTTTTTTTTTTTTTTTTTTTTTTTT…TC). Settings: aptamer strand: ATP DNA aptamer (quencher-CACCTGGGGGAGTATTGCGGAGGAAGG + anchor), 100 nM annealed; ATP concentration: 500 uM.
Method in brief: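 For every switch-domain sequence, the fluorescence ratio is the mean of per-cluster values, each being summed target-cycle Cy3 intensity over summed buffer-cycle Cy3 intensity. Clusters outside 100-1000 RFU were excluded. On a modified Illumina MiSeq flow-cell, the Cy3-labelled switching-strand clusters were annealed to 100 nM quencher-labelled ATP aptamer, imaged in selection buffer and then after 15 min with 500 uM ATP at 22 °C. Five such cycles were run, with NaOH stripping and re-annealing between them.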
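Further: ATP exposure 15 min at 22 °C before imaging.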

| Sequence | switch fluorescence ratio |
| --- | --- |
| CCGGGATCTT | 1.05 ± 0.013 |
| CCGGGCCAGG | 1.255 ± 0.0081 |
| CCGGGCGTGG | 1.09 ± 0.025 |
| CCGGGCTCTG | 1.06 ± 0.013 |
| CCGGGGAGTG | 1.14 ± 0.25 |
| CCGGGGCCTG | 1.05 ± 0.095 |
| CCGGGGGACC | 1.04 ± 0.021 |
| CCGGGGGCGA | 2.64 ± 1.4 |
| CCGGGGGCTG | 1.04 ± 0.068 |
| CCGGGGGGGA | 1.13 ± 0.23 |
| CCGGGGGGGC | 1.32 ± 0.66 |
| CCGGGGGTTC | 1.05 ± 0.062 |
| CCGGGGGTTG | 1.04 ± 0.057 |
| CCGGGGTCGA | 1.57 ± 0.77 |
| CCGGGTATCC | 1.19 ± 0.18 |
| CCGGGTCTGG | 0.992 ± 0.013 |
| CCGGGTGCTA | 2.36 ± 1.4 |
| CCGGGTGGGT | 1.11 ± 0.13 |
| CCGGGTGGTA | 1.17 ± 0.015 |
| CCGGTAAGTC | 1.27 ± 0.026 |
| CCGGTAGGGT | 1.36 ± 0.61 |
| CCGGTATTTG | 1.021 ± 0.0077 |
| CCGGTCTATT | 1 ± 0.048 |
| CCGGTCTTGA | 1.01 ± 0.039 |
| CCGGTGTGTA | 1.03 ± 0.029 |

| Sequence | switch fluorescence ratio |
| --- | --- |
| CCGGTGTGTT | 1.03 ± 0.086 |
| CCGGTTAAGC | 1.2 ± 0.057 |
| CCGGTTAGGG | 0.991 ± 0.029 |
| CCGGTTCAGG | 1.05 ± 0.016 |
| CCGGTTGTGG | 1.01 ± 0.02 |
| CCGGTTGTTG | 1.027 ± 0.0079 |
| CCGTATGTTT | 1.11 ± 0.091 |
| CCGTCATCTG | 1.04 ± 0.029 |
| CCGTCATTGT | 1.11 ± 0.02 |
| CCGTCTACGC | 1.16 ± 0.048 |
| CCGTCTGTTG | 1.03 ± 0.029 |
| CCGTGAATAT | 2.21 ± 0.083 |
| CCGTGGAAAC | 1.14 ± 0.026 |
| CCGTGGTATA | 1.151 ± 0.0068 |
| CCGTGTATTT | 1.05 ± 0.052 |
| CCGTGTCATT | 1.013 ± 0.0023 |
| CCGTGTGGCT | 1.027 ± 0.0022 |
| CCGTGTGGGT | 1.01 ± 0.018 |
| CCGTGTGTCA | 1.03 ± 0.029 |
| CCGTGTTTCT | 0.9916 ± 0.0033 |
| CCGTTCTCGC | 1.31 ± 0.048 |
| CCGTTGAGCT | 1.112 ± 0.01 |
| CCGTTGGCCT | 1.042 ± 0.0065 |
| CCGTTGTGCG | 1.02 ± 0.027 |
| CCGTTGTGGT | 1.05 ± 0.068 |

| Sequence | switch fluorescence ratio |
| --- | --- |
| CCGTTTAGAT | 1.01 ± 0.011 |
| CCGTTTTAGC | 1.12 ± 0.12 |
| CCGTTTTTGT | 0.9922 ± 0.006 |
| CCTACGGTGG | 1.04 ± 0.04 |
| CCTACTTGGC | 1.16 ± 0.05 |
| CCTAGGCTTT | 1.117 ± 0.0063 |
| CCTAGGTCAT | 1.12 ± 0.15 |
| CCTATGCAGT | 5.33 ± 0.3 |
| CCTATGGGGG | 1.49 ± 0.66 |
| CCTATGTGCT | 1.038 ± 0.0059 |
| CCTATTAGG | 1 ± 0.011 |
| CCTCAGGGGC | 2.39 ± 0.57 |
| CCTCATTTTT | 0.988 ± 0.0099 |
| CCTCCAGGGT | 2.5 ± 0.92 |
| CCTCGTAGGT | 1.07 ± 0.024 |
| CCTCTCCGTA | 1.32 ± 0.083 |
| CCTCTGGGGG | 1.32 ± 0.19 |
| CCTGAGTTCG | 1.39 ± 0.21 |
| CCTGCGTCTG | 1.9 ± 0.065 |
| CCTGGAGTTA | 1.04 ± 0.1 |
| CCTGGCGTCG | 1.005 ± 0.0083 |
| CCTGGGGAGT | 1.04 ± 0.034 |
| CCTGGGGATC | 1.15 ± 0.098 |
| CCTGGGGCCA | 1.03 ± 0.038 |
| CCTGGGGGTG | 1.14 ± 0.074 |

| Sequence | switch fluorescence ratio |
| --- | --- |
| CCTGGGGGTT | 1.6 ± 0.79 |
| CCTGGTCGAC | 0.986 ± 0.015 |
| CCTGGTGAGG | 1.04 ± 0.072 |
| CCTGGTGCAT | 2.15 ± 0.056 |
| CCTGGTTGTG | 0.992 ± 0.029 |
| CCTGTGAGTT | 0.986 ± 0.012 |
| CCTGTTGGGA | 1.01 ± 0.037 |
| CCTGTTTCTA | 1.17 ± 0.23 |
| CCTGTTTGTA | 1.01 ± 0.066 |
| CCTTACGGCA | 1.53 ± 0.068 |
| CCTTACTTTT | 0.998 ± 0.036 |
| CCTTATTAGG | 1.002 ± 0.0075 |
| CCTTGCACG | 1.18 ± 0.22 |
| CCTTGGCCGA | 1.17 ± 0.0041 |
| CCTTGGGCTT | 1.04 ± 0.031 |
| CCTTGGTACA | 1.03 ± 0.015 |
| CCTTGGTGAG | 1.01 ± 0.014 |
| CCTTTAGGTT | 1 ± 0.049 |
| CCTTTCATGC | 1.65 ± 0.16 |
| CCTTTGGCAG | 1.22 ± 0.06 |
| CCTTTGTGAT | 1.499 ± 0.0089 |
| CCTTTTATTC | 1.01 ± 0.03 |
| CCTTTTCAGG | 1.03 ± 0.023 |
| CCTTTTGCGC | 1.31 ± 0.012 |
| CCTTTTGGTG | 1.38 ± 0.44 |
